From patent CN114395037A (SHENZHEN PEOPLE HOSPITAL, dated 2022)

Target: T1, CRT N+P结构域 (CALR N+P) (UniProt P27797 18-308)
T1 construct: range 18-308; The ELISA and SPR sections say only 'CRT蛋白' or '纯化抗原蛋白'; also called CRT蛋白; 钙网蛋白; not shown: His tag (Ni purification, anti-His WB)
T1 sequence (looked up): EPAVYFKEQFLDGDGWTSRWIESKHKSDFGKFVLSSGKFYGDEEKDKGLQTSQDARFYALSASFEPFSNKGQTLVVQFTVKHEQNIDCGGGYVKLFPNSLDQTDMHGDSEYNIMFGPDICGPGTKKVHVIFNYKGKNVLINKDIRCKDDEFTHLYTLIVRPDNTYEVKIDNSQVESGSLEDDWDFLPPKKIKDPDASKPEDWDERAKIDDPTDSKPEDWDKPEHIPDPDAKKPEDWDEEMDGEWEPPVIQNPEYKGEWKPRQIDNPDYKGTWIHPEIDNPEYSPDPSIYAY
Experiment: SPR (Biacore), antigen protein immobilised on the chip, nanobody as analyte

B1: 204纳米抗体 (VHH)
VHH: AVQLVESGGGLVQAGGSLRLSCVASGRPFSLYAVGWFRQAPGKAREFVAAISRSGSTTDHADSVKGRFTVSRDNDANTVSLLMSNLKPEDTAIYYCAAARSTRGYDYWGQGTQVTVSS
notes: Alpaca-derived nanobody from a naive phage display library, expressed in E. coli with an HA tag; not shown: fused HA tag (and a tag for Ni purification, vector PET-14B)
**Q.** Which Kd does the source give for B1 here?
**A.** Its Kd is 530 pM.
